Measured values reported in paper doi:10.1101/2020.04.11.036434 (bioRxiv, 2020).

Assays:
[1] = biological target: T1, P-Rex2 DEP2-IP4P (residues 472-1606) (UniProt Q70Z35 472-1606); experiment: SPR
T1 sequence: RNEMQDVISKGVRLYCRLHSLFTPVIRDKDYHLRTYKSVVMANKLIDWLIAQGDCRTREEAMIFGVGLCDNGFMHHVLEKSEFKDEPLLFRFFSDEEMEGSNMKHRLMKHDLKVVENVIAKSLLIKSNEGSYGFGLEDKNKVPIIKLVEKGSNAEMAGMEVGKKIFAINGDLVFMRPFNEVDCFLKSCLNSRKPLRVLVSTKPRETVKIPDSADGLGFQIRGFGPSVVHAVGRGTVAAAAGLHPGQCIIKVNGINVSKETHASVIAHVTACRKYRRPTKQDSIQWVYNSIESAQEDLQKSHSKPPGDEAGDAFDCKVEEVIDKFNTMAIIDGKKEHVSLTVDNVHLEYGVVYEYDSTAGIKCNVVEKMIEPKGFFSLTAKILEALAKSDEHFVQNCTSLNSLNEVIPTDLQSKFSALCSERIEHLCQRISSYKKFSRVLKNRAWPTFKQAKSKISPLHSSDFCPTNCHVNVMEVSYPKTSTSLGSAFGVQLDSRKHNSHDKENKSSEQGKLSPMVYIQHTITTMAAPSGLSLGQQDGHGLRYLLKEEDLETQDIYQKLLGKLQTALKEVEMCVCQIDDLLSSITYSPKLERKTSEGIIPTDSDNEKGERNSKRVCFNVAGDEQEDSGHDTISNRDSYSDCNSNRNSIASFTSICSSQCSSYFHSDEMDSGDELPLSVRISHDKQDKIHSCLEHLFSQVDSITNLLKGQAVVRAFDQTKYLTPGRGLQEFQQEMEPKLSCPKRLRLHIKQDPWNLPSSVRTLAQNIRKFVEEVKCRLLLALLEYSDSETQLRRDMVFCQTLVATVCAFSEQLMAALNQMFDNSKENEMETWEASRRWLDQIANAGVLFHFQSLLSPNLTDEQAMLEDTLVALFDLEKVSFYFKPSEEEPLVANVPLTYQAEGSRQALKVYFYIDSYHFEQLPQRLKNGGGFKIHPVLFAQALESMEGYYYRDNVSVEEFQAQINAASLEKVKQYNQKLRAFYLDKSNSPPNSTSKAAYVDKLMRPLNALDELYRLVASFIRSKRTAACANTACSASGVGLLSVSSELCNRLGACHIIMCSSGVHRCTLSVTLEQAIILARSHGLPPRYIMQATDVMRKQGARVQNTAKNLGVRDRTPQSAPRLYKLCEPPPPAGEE

[2] = biological target: P-Rex2 (WT), recombinant full-length (UniProt Q70Z35 1-1606); experiment: pull-down

binding result [1]: binds
binding result [2]: binds
B1: PTEN (WT), recombinant insect-cell purified (natural protein)
chain: not shown
